From patent US10272135B2, “Apolipoprotein O and fragments thereof for inducing apoptosis in a cancerous cell” (INSERM (INSTITUT NATIONAL DE LA SANTÉ ET DE LA RECHERCHE …, priority 2014, dated 2019)

Assays:
[1] = tested on: long-chain acyl-CoA synthetase (ACSL); assay: Acyl-CoA synthetase activity in cardiac myoblasts; format: cell-based; conditions: ApoO cells vs control (FIG. 6C)
Description: (§1) After ethical committee approval, all patients in this study gave written consent for sample collection and molecular analysis prior to inclusion. Patients were carefully selected by physicians from the Department of Cardiology, Toulouse University Hospital, prior to coronary by-pass surgery. Bioinformatics. Microarray expression data from human heart samples were downloaded from the GEO repository (GSE1145). This series consisted of 107 myocardial samples collected from patients undergoing cardiac transplantation whose failure arises from different etiologies (e.g. idiopathic dilated cardiomyopathy, ischemic cardiomyopathy, valvular cardiomyopathy, and hypertrophic cardiomyopathy) and from “normal” organ donors whose hearts cannot be used for transplants. Arrays were intensity normalized and hierarchical clustering (average group linkage, Pearson correlation, threshold r=0.8) was applied to identify groups of co-expressed genes. […] All ApoO sequences within the expression vectors were verified by DNA double strand sequencing using ABI PRISM®BigDye™ Terminator version 3.1 Ready reaction cycle sequencing kit (Life Technologies SAS, Villebon sur Yvette) and loaded on an ABI 3130XL DNA sequencing instrument (Life Technologies SAS, Villebon sur Yvette). […]

[2] = tested on: cardiac myoblasts; assay: Transmission electron microscopy of cardiac myoblasts; format: cell-based; conditions: ApoO cells
Description: as §1

- long-chain acyl-CoA synthetase (ACSL) activity [1]: strongly increased
B1: ApoO: 198-amino acid apolipoprotein, SEQ ID NO: 1; tested by overexpression from expression vectors or transgene (protein, listed as Homo sapiens)
chain: MFKVIQRSVGPASLSLLTFKVYAAPKKDSPPKNSVKVDELSLYSVPEGQSKYVEEARSQLEESISQLRHYCEPYTTWCQETYSQTKPKMQSLVQWGLDSYDYLQNAPPGFFPRLGVIGFAGLIGLLLARGSKIKKLVYPPGFMGLAASLYYPQQAIVFAQVSGERLYDWGLRGYIVIEDLWKENFQKPGNVKNSPGTK
- plasma membrane morphology (TEM) [2]: formation of blebs
